In paper PMC7864079, “Molecular basis for histone H3 “K4me3-K9me3/2” methylation pattern readout by Spindlin1” (The Journal of Biological Chemistry, 2021):

Target: double Tudor domains of JMJD2A
Experiment: ITC; reader domains (BPTF, RAG2, ZCWPW1, SGF29, JMJD2A) titrated with H3 peptides; 25°C; One Set of Binding Sites model

Substance | Kd [nM]
H3_(1–20) K4me3 peptide (from UniProt P68431 2-21) | 600
H3_(1–20) “K4me3-K9me3” peptide (from UniProt P68431 2-21) | 900
